# Tests used:
# [1] = target: LOV domain protein of Rhodobacter sphaeroides (RsLOV), wild type (Rhodobacter sphaeroides ATCC 17025); experiment: SEC
# RsLOV = RsLOV (Cereibacter sphaeroides, UniProt M1E1F8); experiment: X-ray crystallography; type: binding; details: dark state, noncovalent; 1.9 Å
# [2] = target: A138Y RsLOV variant (Rhodobacter sphaeroides ATCC 17025); experiment: SEC
compound,measurement,setting,value
"LOV domain protein of Rhodobacter sphaeroides (RsLOV), wild type (natural protein)",stoichiometry N,[1],2
Cc1cc2nc3c(=O)[nH]c(=O)nc-3n(C[C@H](O)[C@H](O)[C@H](O)COP(=O)(O)O)c2cc1C [FMN],X-ray crystallography,RsLOV,The Val32 side chain does not extend as far into the FMN pocket as Leu
A138Y RsLOV variant (natural protein),stoichiometry N,[2],2
